Assay results from patent US6623741.
Several values for one entry are separate records, joined by “and”; a condition that tells them apart may be missing. Equal entries are not always repeated. Where two headings read alike, the source gives them in different places.

How the values were obtained:
[1] = biological target: T1, MF-IV (MF5.1): E. coli maltose binding protein fused to RSV F protein residues 142-302 (E. coli; respiratory syncytial virus (strain A2)), P03420
T1 chain: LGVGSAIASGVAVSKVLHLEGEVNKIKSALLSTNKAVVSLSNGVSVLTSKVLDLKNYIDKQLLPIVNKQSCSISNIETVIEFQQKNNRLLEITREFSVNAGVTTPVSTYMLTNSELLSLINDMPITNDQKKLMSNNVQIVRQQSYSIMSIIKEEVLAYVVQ

[2] = biological target: T1, MF-IV (MF5.1): E. coli maltose binding …; assay: competitive binding assay (B50) on the MF5.1 fusion protein; reference T112
[3] = biological target: T1581 (respiratory syncytial virus (strain A2)); assay: sedimentation equilibrium, 35 µM peptide (self-association)
[4] = biological target: T1581 (respiratory syncytial virus (strain A2)); assay: sedimentation equilibrium, 35 µM peptide, single ideal species fit (self-association); monomer 5007
[5] = biological target: T1584 (respiratory syncytial virus (strain A2)); assay: sedimentation equilibrium, 35 µM peptide (self-association)
[6] = biological target: T1584 (respiratory syncytial virus (strain A2)); assay: sedimentation equilibrium, 35 µM peptide, single ideal species fit (self-association); monomer 5506
[7] = biological target: T1623 (respiratory syncytial virus (strain A2)); assay: sedimentation equilibrium, 35 µM peptide (self-association)
[8] = biological target: T1623 (respiratory syncytial virus (strain A2)); assay: sedimentation equilibrium, 35 µM peptide, single ideal species fit (self-association); monomer 5750
[9] = biological target: T1772 (respiratory syncytial virus (strain A2))
[10] = biological target: T1772 (respiratory syncytial virus (strain A2)); assay: sedimentation equilibrium (self-association)
[11] = biological target: T1772 (respiratory syncytial virus (strain A2)); assay: sedimentation equilibrium, value at 25 µM, single ideal species fit (self-association); monomer 5393
[12] = biological target: T1582 (respiratory syncytial virus (strain A2)); assay: sedimentation equilibrium, 35 µM peptide (self-association)
[13] = biological target: T1582 (respiratory syncytial virus (strain A2)); assay: sedimentation equilibrium, 35 µM peptide, single ideal species fit (self-association); monomer 4897
[14] = biological target: T1772 (respiratory syncytial virus (strain A2)); remark: listed apart in the source
[15] = biological target: T1772 (respiratory syncytial virus (strain A2)); remark: listed apart in the source
[16] = biological target: T112 (respiratory syncytial virus (strain A2))
[17] = biological target: T1772 (respiratory syncytial virus (strain A2)); remark: listed apart in the source
[18] = biological target: T1772 (respiratory syncytial virus (strain A2)); remark: listed apart in the source

DEFDASISQVNEKINQSLAFIRKSDELL (modifications not checked) [T67] showed a binding affinity [1] of 5 nM and a fold lower binding affinity than T112 [2] of 5 fold.

Binder VLHLEGEVNKIKSALLSTNKAVVSLSNGVSVLTSKVLDLKNYIDKQ (modifications not checked) [T1581] has a N-mer (weight-averaged molecular weight / monomer molecular weight) [3] of 1.8 and a weight-averaged molecular weight [4] of 9120 g/mol.

B1: T1584 (peptide)
peptide: AVSKVLHLEGEVNKIKSALLSTNKAVVSLSNGVSVLTSKVLDLKNYIDKQL
modifications: not checked
In the case of B1, the N-mer (weight-averaged molecular weight / monomer molecular weight) [5] is reported as 2.1 and the weight-averaged molecular weight [6] is reported as 11700 g/mol.

B2: T1623 (peptide)
peptide: SGVAVSKVLHLEGEVNKIKSALLSTNKAVVSLSNGVSVLTSKVLDLKNYIDKQL
modifications: not checked
Work on B2 yielded a N-mer (weight-averaged molecular weight / monomer molecular weight) [7] of 2.2 and a weight-averaged molecular weight [8] of 12900 g/mol.

AVSKVLHLEGEVNKIKSALLSTNKAVVSLSNGVSVLTSKVLDLKNYIDKQ (modifications not checked) [T1772] showed a weight-averaged molecular weight [9] of 12900 Da, a N-mer (weight-averaged molecular weight / monomer molecular weight) [10] of 2.4 and a weight-averaged molecular weight [11] of 12900 g/mol.

VLHLEGEVNKIKSALLSTNKAVVSLSNGVSVLTSKVLDLKNYIDK (modifications not checked) [T1582] was tested, and the N-mer (weight-averaged molecular weight / monomer molecular weight) [12] was 1.5 and the weight-averaged molecular weight [13] was 7520 g/mol.

VFPSDEFDASISQVNEKINQSLAFIRKSDELLHNV (modifications not checked) [T112] was tested, and the weight-averaged molecular weight of the mixture [14] was 15300 Da and 22000 Da and 17300 Da, the weight-averaged molecular weight of the mixture [15] was 21100 Da and the weight-averaged molecular weight [16] was 3980 Da. For the same binder, the helicity of the peptide mixture [17] was 86% and the melting temperature (Tm) of the peptide mixture [18] was 87 ° C.
